{"source": "the nanobody polyreactivity screen of Harvey et al. (2022)", "data": [{"experiment": "yeast display, Sf9 membrane polyspecificity reagent, FACS + sequencing; frameworks hold sequencing errors", "outline": "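A synthetic nanobody library was expressed on Saccharomyces cerevisiae BJ5465 by galactose induction for 36–48 hours. The library was stained for 1 hour at 4 °C with 10% biotinylated, detergent-solubilized Sf9 membrane reagent and enriched with streptavidin microbeads before FACS. Low and high (top ~1%) gates were set on anti-HA fluorescence for expression and streptavidin fluorescence for reagent binding, and each polyreactivity label reflects the gate of origin.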", "values": [{"sequence": "QVQLVESGGRLVQAGGSLRISCAASGNTFVRYAMGWYRQAPGKQSELVASISTSGGSTYYADSVKGRFTISRDNAKNTVYLQMNSLKPQDTAVYYCAARLPRTRYWEDFWGQGTQVSVSS", "polyreactivity (PSR sort gate)": "high polyreactivity"}, {"sequence": "QVQLVESGGGLVQAGGSLSLSCAASGFIFYGYAMGWYRQAPGKEREIVAAISGRGDRTYYADSVKGRFTISRDNAKNTVYLQMNSLNPEDTAVYYCAALQLRYSGALWYDYWGQGTQVTVSS", "polyreactivity (PSR sort gate)": "high polyreactivity"}, {"sequence": "QVQLVESGGGLVQAGGSLRLSCAASGSIIARYAMGWYRQAPGKETELVAAINSGTSTNYADSVKGRFTISRDNAKNTVYFQMHCLKPEDTEVYYCNTQWYVDNDTYTQTDYDYWGQGTQVTVSS", "polyreactivity (PSR sort gate)": "low polyreactivity"}, {"sequence": "QVQLVESGGGVVQAGGSLRLSCAASGSIFPYYVMGWYRQAPGKERELVAVISQSGGSTYYADSVKGRFTISRDNAKNTVYLQMNSLKPEDTAVYYCAAESAYDAYDYWGQGTQVTVSS", "polyreactivity (PSR sort gate)": "high polyreactivity"}, {"sequence": "QVQLVESGGGLVQAGGSLRLSCAASGNIFQRYAMGWYRQAPGKERDLVAAISYSGARTYYADSVKGRFTISRDNAKNTDYLQMNSLKPEDTAVYYCATYGGLTKFRLAYDYWGQGTQVTVSS", "polyreactivity (PSR sort gate)": "high polyreactivity"}, {"sequence": "QVQLVESGGGLVQAGGSLRLSCAASGFTSGNYAMGWYRQAPGKEREFVAAITWGDGSTFYADSVKGRFTISRDNAKNTVYLQMNSLKPEDTAVYYCAADYSRTYRAYDYWGQGTQVTVSS", "polyreactivity (PSR sort gate)": "low polyreactivity"}, {"sequence": "QVQIVESGGGLFQAGGSLRISCAASGRPFAPNAMGWYRQAPAKERELVAAITGRGGRTYYADSVKGRFTISRDNANNTVYLQMNSEKPADTAVYYCAYFIAPWGLDFWGQGTEVTVSS", "polyreactivity (PSR sort gate)": "high polyreactivity"}, {"sequence": "QVQLVESGGGLVQAGGSLRLSCAGSGSTFVVYSIGWYRQAPGKERELVAAITRGGGSTYYAYSVKGRFTISRDNAKNTVYLLMNSLKPEDTAVYYCAAYQLPGLRTSFEYWGQGTQVTVSS", "polyreactivity (PSR sort gate)": "low polyreactivity"}, {"sequence": "QVQLVESGGGLVQAGGSLRLSCAASGRIFSYYAMGWYRQAPGKERELVATISGSGGSTYYADSVKGRFTISRDNAKNTVYLQMNSLKPEDTAVYYCAATGFIFRGRVRAIPRRYNYWGQGTQVTVSS", "polyreactivity (PSR sort gate)": "high polyreactivity"}, {"sequence": "QVQLVESGGGLVQAGGSLRLSCAASGSTFHWYAMGWYRQAPGKERELVAVITWSGGSTYYADSVKGRFTISRDNAKNTVYLQMNSLKPEDTAVYYCARDWYRYKLWLFRGQDGDYWGQGTQVTVSS", "polyreactivity (PSR sort gate)": "low polyreactivity"}, {"sequence": "QVQLVESGGGLVQAGGSLRLSCAASGITFYSYAMGWYRQAPGKERELVAAISTTVGSTYYADSVKGRFTISRDNAKNTVYLQMNSLKPEDTAVYYCNAYRVYAWIEYNYWGQGTQVTVSS", "polyreactivity (PSR sort gate)": "low polyreactivity"}, {"sequence": "QVQLVESGGGLVQAGGSLRLSCAASGYTFPDYAMGWYRQATGKERELVAAIRSGGGTNYADSVKGRFTISRDNAKNTVYLQMNSLKPEDTAVYYCAKEWAGGLYDYWGQGTQVTVSS", "polyreactivity (PSR sort gate)": "low polyreactivity"}, {"sequence": "QVQLVESGGGLVQAGGSLRLSCAASGRTFPYNAMGWYRQAPGKERELVASITYNGGSTYYADSVKGRFTISRDNAKNTVYLQMISLKPEDTAVYYCAKLFRTYYATYNYWGQGTQVTVSS", "polyreactivity (PSR sort gate)": "high polyreactivity"}, {"sequence": "QVQLVESGGGLVQAGGSLRLSCAASGITFPGYAMGWYRQAPGKERELVAAISTSGGSTYYADSVKGRFTISRDNAKNTVYLQMNSLTPDDTAVYYCNARLVYYSYEEMDYWGQGTQVTVSS", "polyreactivity (PSR sort gate)": "low polyreactivity"}, {"sequence": "QVQLVESGGGLVQAGGSLRLSCAASGFTLTRNAMGWYRQAPGKERELVAAISWSGGTTYYADSVKGRFTISRDNAKNTVYLQMNSLKPEDTAVYYCAADYTLQRQTSFLDSEFYWGQGTQVTVSS", "polyreactivity (PSR sort gate)": "high polyreactivity"}, {"sequence": "QVQLVESGGGLVQAGGSLRLSCAASGSTFIVNAMGWYRQAPGKERELVAAISRSGSDTYYADSVKGRFTISRDNAKNTVYLQMNSLKPEDTAVYYCAARWSYRSLARYNYWGQGTQVTVSS", "polyreactivity (PSR sort gate)": "low polyreactivity"}, {"sequence": "QVQLVESGGGLVQAGGSLRLSCAASGSTFRRYAMGWYRQAPGKERELVAGISYSGGRTYYADSVKGRFTISRDNAKNTVYLQMNSLKPEDTAVYYCAAKSFPSVRHHENYYWGQGTQVTVSS", "polyreactivity (PSR sort gate)": "high polyreactivity"}, {"sequence": "QVQLVESGGGLVQAGGSLRLSCAASGYTIRYYAMGSYRQAPGKERELVADISYSGGRTYYADSVKGRITISRDNAKNTVDLLMNSLKPEDSAVYYSNARGGRRAYNYGYWGQGTQVTVSS", "polyreactivity (PSR sort gate)": "high polyreactivity"}, {"sequence": "QVQLVESGGGLVQAGGSLRLSCAASGSIFYGYAMGWYRQAPGKERELVAAISWTGGRTYYADSVKGRFTISRDNAKNTVYLQMNSLKPEDTAVYYCNVRRYSVVSGGYCGQGTQVTVSS", "polyreactivity (PSR sort gate)": "high polyreactivity"}, {"sequence": "QVQLVETGGGLVQAGGSLRLSCAASGSISPINAMGWYRQPPGKERELVAAINGGGSTYYADSVKGRFTISRDNAKNTVYLQMNSLKPEDTAVYYCSRDALHYAGSLHRYGYWGQGTQVTLSS", "polyreactivity (PSR sort gate)": "low polyreactivity"}, {"sequence": "QVQLVQSGGGLVQAGGSLRLSCAASGRIIGWYAMGWYRQAPGKERELVAAITWSGTSTYYADSVKGRFTISRDNAKNTVYLQMNSLKPEDTAVYYCAADSLPASAPTYYTTLESWGQGTQVTVSS", "polyreactivity (PSR sort gate)": "low polyreactivity"}, {"sequence": "QVQLVESGGGLFQAGGSLRLICAASGNIFKSYTMGWYRQAPGKERELVAAITSGGRTNYADSVKGRFTISRDNAKNTVYLQMNSLKPEDTAVYYCNAYKVFWVSIRYKFDYWGQGTQVTVSS", "polyreactivity (PSR sort gate)": "high polyreactivity"}, {"sequence": "QVQLVESGEGLVQAGGSLRLSCAASGSTFTYNAMGWYRHAPGKERELVAAIDWDGDTTYYADSVKGRFTISRDNAKNTVYLQMNSLKPEDTAVYYCAARPKYPYYARYDYWGQGTQVTVSS", "polyreactivity (PSR sort gate)": "high polyreactivity"}, {"sequence": "QVQLVESGGGLVQAGGSLRLSCAASGSIFYTYAMGWYRQAPGKERELVAAISRSGGSTYYADSVKGRFTISRDNAKNTVYVQMNSLKPEETAVYYCAAVSYRGRGYWGQGTQVTVSS", "polyreactivity (PSR sort gate)": "high polyreactivity"}, {"sequence": "QVQLVESGGGLVQAGGSLRLSCDASGSIFDGYGMGWYRQAPGKERELVASITWNDGSTYYAASVKGRFTISRDNATNTVYLQMNSLKPEDTAVYYCAADQWGYEYDYWGQGTQVTVSS", "polyreactivity (PSR sort gate)": "low polyreactivity"}, {"sequence": "QVQLVESGVGLVQAGGSLRLSCAASGRIFGSYTMGWYRQAPGKERELVAGISRRGGSTYYADSVKGRFTISRDNAKNTVYLQMNSLKPEDTAVYYCAVVSSHYKGPGRNGYDYWGQGTQVTVSS", "polyreactivity (PSR sort gate)": "high polyreactivity"}, {"sequence": "QVQLVESGRGLVQAGVSLRISCAPSGRIFSGYAMGWYRQAPGKERELVAAITSSSGSTYYADSVKWRFTISRDNAKNTFYLQMISLKPEDTAVYYCAAEYVRLYWYTSDYWGQGTEVTVSS", "polyreactivity (PSR sort gate)": "low polyreactivity"}, {"sequence": "QVQLVESGGGLVQAGGSLRLSCAASGRIFHYNAMGWYRQAPGKERELVAAISTGGSTNYADSVKGRFTISRDNAKNTFYLQMYSLKPEDTAVYYCAADHPVTYPTSKFDFWGQGTQVTVSS", "polyreactivity (PSR sort gate)": "low polyreactivity"}, {"sequence": "QVQLVESGGGLVQAGGSLRLSCAASGFIFPFYAMGWYRQAPGKERELVAGIRGVGSTNYADSVKGRFTISRDNAKNTVYLQMNSLKPEDTAVYYCNKELYDFKDRNLTAFLLRIFDSWGQGTQVTVSS", "polyreactivity (PSR sort gate)": "low polyreactivity"}, {"sequence": "QVQLVESGGGLVQAGGSLRLSCAASGSTFTVNGMGWYRQAPGKERELVAAITWGGGSTYYADSVKGRFTISRDNAKNTVYLQMNSLKPEDTAVYYCAADDGYLFDYWGQGTQVTVSS", "polyreactivity (PSR sort gate)": "low polyreactivity"}, {"sequence": "QVQLVESGGGLVQAGGSLRLSCAASGSTFRRKVMGGYRQAPGKERELVASIRSGGTTNYADSVKGRFTISRDNAKNTVYLQMNSLKPEDTAVYYCNKRLFWYRHYYYLGQGTQVTVSS", "polyreactivity (PSR sort gate)": "high polyreactivity"}, {"sequence": "QVQLVESGGGLVQAGGSLLLSCAASGIIFGTNALGWYRQAPGKERELVAAITWSGGNTTYADSVKGRFTISRDNAKNTVYLQMNSLKPEDTAVYYCAADFTRAGDYDYWGQGTQVTVSS", "polyreactivity (PSR sort gate)": "low polyreactivity"}, {"sequence": "QVQLQESGGGLVQAGGSLRLSCAASGYISTWYPMGWYRQAPGKEREFVATIAPGATTYYADSVKGRFTISRDYAKNSVYLQMNSLKPEDTAVYYCAAGPENNDFYSYWGQGTQVTVSS", "polyreactivity (PSR sort gate)": "low polyreactivity"}, {"sequence": "QVQLVESGGGLVQAGGSLRLSCAASGRISYLYTMGWYRQAPGKERELVAAIRWRDGSTYYADSVKGRFTISRDNAKNTVYLQMNSLKPEDTAVYYCAKRFAGGEYGYYWGQGTQVTVSS", "polyreactivity (PSR sort gate)": "low polyreactivity"}, {"sequence": "QVQLVESGGGLVQAGGSLRLSCAAAGRIFSYNAMGWYRQAPGKERELVAAISSGGSTYYADSVKGRFTISRDNAKNTFYLQMNSLKPEDTAVYYCAADRRYYSDMYYWGQGTQVTVSS", "polyreactivity (PSR sort gate)": "low polyreactivity"}, {"sequence": "QVQLVESGGGLVQAGGSLRLSCAASGRTFRSYAMGWYRQAPGKERELVASITSSGRTNYADSVKGRFTISRDNAKNTVYLQMNSLKPEDTAVYYCAAVRYYDYLSSWRYDYWGQGTQVTVSS", "polyreactivity (PSR sort gate)": "low polyreactivity"}, {"sequence": "QVQLVESGGGLVQAGGSLRLSCAASGSTFFLYAMGWYRQAPGKERELVAAITYTDGDTYYADSVKGRFTISRDNAKNTVYLQMNSLKPEDTAVYYCAAYRFPYFPSIAYYYTYYSWGQGTQVTVSS", "polyreactivity (PSR sort gate)": "low polyreactivity"}, {"sequence": "QVQLVESGGGLVQAGGSLRLSCAASGSIFQINAMGWYRPAPGKERECVASITYSGGSTYYADSVKGRFTISRDNAKNTVYLQMNSLKPEDTAVYYCAAESYWGYDYWGQGTQVTVSS", "polyreactivity (PSR sort gate)": "high polyreactivity"}, {"sequence": "QVQLVESGGGLVQAGGSLRLSCAASGFTFFVYAMGWYRQAPGKERELVATINWSGASTYYADSVKGRFTISRDNAKNTVYLQMKSLKPEDTAVYYCAKDGHYPLVYLAFDYWGQGTQVTVSS", "polyreactivity (PSR sort gate)": "low polyreactivity"}, {"sequence": "QVQLVESGGGLFQAGGSLRLSCAASGIIFVRNAMGWSRQAPGKERELVAAITPSGGSTYYADSVKGRFTISRDNAKNTVYLQMNSLKPEDTAVYYCAAPYRYRSLYDNWGQGSQVTVSS", "polyreactivity (PSR sort gate)": "high polyreactivity"}, {"sequence": "QFHLVESGGGLVQAGGSLRLSCAAAGYTYGYYTMGWYRQAPGKERELVAAIDSGGRTNYADSVKGRFTISRDNAKNTVYLQMNSRKPEDTAVYYCAAESPLYWVDDFESGWRYYYWGQGTQVTVSS", "polyreactivity (PSR sort gate)": "low polyreactivity"}, {"sequence": "QVQLVESGGGLVQAGGSLRLSCAASGRTFVSNAMGWYRQAPGKERELVAGINWTDDSTYYADSVKGRFTISRDNAKNTVYLQINSLKPEDTAVYYCAADSLEFAWPRFDYWGQGTQVTVSS", "polyreactivity (PSR sort gate)": "low polyreactivity"}, {"sequence": "QVQLVESGGGLVQAGGSLRLSCAASGSIFRGYAMGWYRQAPGKERELVAAISWSGGSTYYADSVKGRFTISRDNAKNTVYLQMNSLKPEDTAVYYCAVEYVAYLYRMDYWGQGTQVTVSS", "polyreactivity (PSR sort gate)": "high polyreactivity"}]}]}
